Measurements taken from article PMC4330345 (Nucleic Acids Research, 2015).

Target: T1, HlyU_Vc wild type (Vibrio cholerae, UniProt P52695 1-108)
T1 sequence: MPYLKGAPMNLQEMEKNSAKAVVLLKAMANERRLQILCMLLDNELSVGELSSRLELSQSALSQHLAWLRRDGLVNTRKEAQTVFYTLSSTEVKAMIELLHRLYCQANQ
Assay: EMSA; EMSA: 1 nM probe, 1 mM Tris, 6 mM NaCl, 0.5 mM MgCl2, 0.01 mM EDTA, 0.1 mM CaCl2, 0.2% glycerol, 0.03 mg/ml salmon sperm DNA, 1 h, 4 C, pH not stated; footprint: ~10 nM DNA, 1 h, 4 C
Conditions: protein: recombinant; tags: N-terminal 6xHis removed with thrombin; chain copies: 2; label: radiolabel; blunt

Row | Binder | binding result
1 | O3 (dsDNA) DNA 1: TTGGGGGGGGGGGGGGGACTAAATTAGTTCAAATT DNA 2: AATTTGAACTAATTTAGTCCCCCCCCCCCCCCCAA | no binding
2 | O1 (dsDNA) DNA 1: TTTATAAATTAATTCAGACTAAATTAGTTCAAATT DNA 2: AATTTGAACTAATTTAGTCTGAATTAATTTATAAA | binds
3 | O2 (dsDNA) DNA 1: ATTAATCTTTAAATCAACTTTATAAATTAATTCAG DNA 2: CTGAATTAATTTATAAAGTTGATTTAAAGATTAAT | no binding

Target: the molecule itself
Assay: SEC
Conditions: not given

Row | Binder | stoichiometry N
4 | HlyU of V. cholerae, wild type (natural protein, not shown: His6, N-terminal, cleaved) MPYLKGAPMNLQEMEKNSAKAVVLLKAMANERRLQILCMLLDNELSVGELSSRLELSQSALSQHLAWLRRDGLVNTRKEAQTVFYTLSSTEVKAMIELLHRLYCQANQ | 2

Target: the molecule itself
Assay: SEC; analytical gel filtration (AKTA prime Plus); 500 ug protein injected; 50 mM sodium phosphate, 200 mM sodium chloride, pH 6.8; molecular weight from marker proteins; self-association, dimer against monomer
Conditions: not given

Row | Binder | binding result
5 | HlyU_Vc L98D (natural protein, source: E. coli BL21 (DE3), purified (Ni-NTA); not shown: His6, N-terminal, cleaved) MPYLKGAPMNLQEMEKNSAKAVVLLKAMANERRLQILCMLLDNELSVGELSSRLELSQSALSQHLAWLRRDGLVNTRKEAQTVFYTLSSTEVKAMIEDLHRLYCQANQ | binds
6 | HlyU_Vc E49A (natural protein, source: E. coli BL21 (DE3), purified (Ni-NTA); not shown: His6, N-terminal, cleaved) MPYLKGAPMNLQEMEKNSAKAVVLLKAMANERRLQILCMLLDNELSVGALSSRLELSQSALSQHLAWLRRDGLVNTRKEAQTVFYTLSSTEVKAMIELLHRLYCQANQ | binds
7 | HlyU_Vc R33A (natural protein, source: E. coli BL21 (DE3), purified (Ni-NTA); not shown: His6, N-terminal, cleaved) MPYLKGAPMNLQEMEKNSAKAVVLLKAMANERALQILCMLLDNELSVGELSSRLELSQSALSQHLAWLRRDGLVNTRKEAQTVFYTLSSTEVKAMIELLHRLYCQANQ | binds
8 | HlyU_Vc Q63A (natural protein, source: E. coli BL21 (DE3), purified (Ni-NTA); not shown: His6, N-terminal, cleaved) MPYLKGAPMNLQEMEKNSAKAVVLLKAMANERRLQILCMLLDNELSVGELSSRLELSQSALSAHLAWLRRDGLVNTRKEAQTVFYTLSSTEVKAMIELLHRLYCQANQ | binds
9 | HlyU_Vc A66S (natural protein, source: E. coli BL21 (DE3), purified (Ni-NTA); not shown: His6, N-terminal, cleaved) MPYLKGAPMNLQEMEKNSAKAVVLLKAMANERRLQILCMLLDNELSVGELSSRLELSQSALSQHLSWLRRDGLVNTRKEAQTVFYTLSSTEVKAMIELLHRLYCQANQ | binds
10 | HlyU_Vc K26A (natural protein, source: E. coli BL21 (DE3), purified (Ni-NTA); not shown: His6, N-terminal, cleaved) MPYLKGAPMNLQEMEKNSAKAVVLLAAMANERRLQILCMLLDNELSVGELSSRLELSQSALSQHLAWLRRDGLVNTRKEAQTVFYTLSSTEVKAMIELLHRLYCQANQ | binds
11 | HlyU_Vc R69A (natural protein, source: E. coli BL21 (DE3), purified (Ni-NTA); not shown: His6, N-terminal, cleaved) MPYLKGAPMNLQEMEKNSAKAVVLLKAMANERRLQILCMLLDNELSVGELSSRLELSQSALSQHLAWLARDGLVNTRKEAQTVFYTLSSTEVKAMIELLHRLYCQANQ | binds
12 | HlyU_Vc R32A (natural protein, source: E. coli BL21 (DE3), purified (Ni-NTA); not shown: His6, N-terminal, cleaved) MPYLKGAPMNLQEMEKNSAKAVVLLKAMANEARLQILCMLLDNELSVGELSSRLELSQSALSQHLAWLRRDGLVNTRKEAQTVFYTLSSTEVKAMIELLHRLYCQANQ | binds
13 | HlyU_Vc R70A (natural protein, source: E. coli BL21 (DE3), purified (Ni-NTA); not shown: His6, N-terminal, cleaved) MPYLKGAPMNLQEMEKNSAKAVVLLKAMANERRLQILCMLLDNELSVGELSSRLELSQSALSQHLAWLRADGLVNTRKEAQTVFYTLSSTEVKAMIELLHRLYCQANQ | binds
14 | HlyU_Vc Q81A (natural protein, source: E. coli BL21 (DE3), purified (Ni-NTA); not shown: His6, N-terminal, cleaved) MPYLKGAPMNLQEMEKNSAKAVVLLKAMANERRLQILCMLLDNELSVGELSSRLELSQSALSQHLAWLRRDGLVNTRKEAATVFYTLSSTEVKAMIELLHRLYCQANQ | binds
15 | HlyU_Vc L65A (natural protein, source: E. coli BL21 (DE3), purified (Ni-NTA); not shown: His6, N-terminal, cleaved) MPYLKGAPMNLQEMEKNSAKAVVLLKAMANERRLQILCMLLDNELSVGELSSRLELSQSALSQHAAWLRRDGLVNTRKEAQTVFYTLSSTEVKAMIELLHRLYCQANQ | binds
16 | HlyU_Vc Y85A (natural protein, source: E. coli BL21 (DE3), purified (Ni-NTA); not shown: His6, N-terminal, cleaved) MPYLKGAPMNLQEMEKNSAKAVVLLKAMANERRLQILCMLLDNELSVGELSSRLELSQSALSQHLAWLRRDGLVNTRKEAQTVFATLSSTEVKAMIELLHRLYCQANQ | binds
17 | HlyU_Vc K78A (natural protein, source: E. coli BL21 (DE3), purified (Ni-NTA); not shown: His6, N-terminal, cleaved) MPYLKGAPMNLQEMEKNSAKAVVLLKAMANERRLQILCMLLDNELSVGELSSRLELSQSALSQHLAWLRRDGLVNTRAEAQTVFYTLSSTEVKAMIELLHRLYCQANQ | binds
18 | HlyU_Vc H64A (natural protein, source: E. coli BL21 (DE3), purified (Ni-NTA); not shown: His6, N-terminal, cleaved) MPYLKGAPMNLQEMEKNSAKAVVLLKAMANERRLQILCMLLDNELSVGELSSRLELSQSALSQALAWLRRDGLVNTRKEAQTVFYTLSSTEVKAMIELLHRLYCQANQ | binds
19 | HlyU_Vc N30A (natural protein, source: E. coli BL21 (DE3), purified (Ni-NTA); not shown: His6, N-terminal, cleaved) MPYLKGAPMNLQEMEKNSAKAVVLLKAMAAERRLQILCMLLDNELSVGELSSRLELSQSALSQHLAWLRRDGLVNTRKEAQTVFYTLSSTEVKAMIELLHRLYCQANQ | binds
20 | HlyU_Vc W67A (natural protein, source: E. coli BL21 (DE3), purified (Ni-NTA); not shown: His6, N-terminal, cleaved) MPYLKGAPMNLQEMEKNSAKAVVLLKAMANERRLQILCMLLDNELSVGELSSRLELSQSALSQHLAALRRDGLVNTRKEAQTVFYTLSSTEVKAMIELLHRLYCQANQ | binds
21 | HlyU_Vc T90A (natural protein, source: E. coli BL21 (DE3), purified (Ni-NTA); not shown: His6, N-terminal, cleaved) MPYLKGAPMNLQEMEKNSAKAVVLLKAMANERRLQILCMLLDNELSVGELSSRLELSQSALSQHLAWLRRDGLVNTRKEAQTVFYTLSSAEVKAMIELLHRLYCQANQ | binds
22 | HlyU_Vc S62A (natural protein, source: E. coli BL21 (DE3), purified (Ni-NTA); not shown: His6, N-terminal, cleaved) MPYLKGAPMNLQEMEKNSAKAVVLLKAMANERRLQILCMLLDNELSVGELSSRLELSQSALAQHLAWLRRDGLVNTRKEAQTVFYTLSSTEVKAMIELLHRLYCQANQ | binds
